Data as given in patent US9248180B2, “IC31 nanoparticles” (Valneva Austria GmbH, priority 2010, dated 2016).
Several values for one entry are separate records, joined by “and”; a condition that tells them apart may be missing. Equal entries are not always repeated.

Legend:
[1] = Viscosity and sterile-filterability of KLK in 10 mM Tris as a function of pH; format: physicochemical; settings: for Viscosity (cP): 2000 nmol/mL KLK in 10 mM Tris, no salt; for Sterile-filterable: 0.2 μm filter
Experimental: For sterile filtration, appropriate viscosity of the mixture to be filtered is also critical. Viscosity can be measured e.g. on a Brookfield DV-E rotation viscometer at 20° C. using an LV61 spindle and can be reported as centipoise (cP=milliPascal seconds). Preferred compositions have a viscosity of less than 15 cP. Even more preferred compositions have viscosities of less than 12 cP or even less than 10 cP.
One of the key factors for sterile-filterable compositions is viscosity. At a viscosity >15 cP, sterile filtration through a 0.2 μm filter is no longer possible. The final viscosity of the nanoparticulate IC31® composition correlates to the final pH of the composition due to the fact that the viscosity of KLK in solution increases drastically with increasing pH, resulting in non-sterile-filterable formulations at a final pH of around 7.2.

[2] = system: CD8+ cells from the lungs; assay: Cytometric Bead Array of cytokines produced by CD8+ lung cells of vaccinated mice; format: in vivo, C57BL/6 mice; settings: immunizations d0, d13, d28
[3] = CD8+ lung cells stimulated with Medium
[4] = CD8+ lung cells stimulated with SVN19-28
[5] = CD8+ lung cells stimulated with TRP-2180-188

Sequence: KLKLLLLLKLK [peptide component of IC31®]
- Viscosity (cP) ([1]; pH 6.24): 9.69 cP
- Sterile-filterable ([1]; pH 6.24): Yes
- Viscosity (cP) ([1]; pH 6.4): 8.06 cP
- Sterile-filterable ([1]; pH 6.4): Yes
- Viscosity (cP) ([1]; pH 6.6): 10.00 cP
- Sterile-filterable ([1]; pH 6.6): Yes
- Viscosity (cP) ([1]; pH 6.73): 10.00 cP
- Sterile-filterable ([1]; pH 6.73): Yes
- Viscosity (cP) ([1]; pH 6.88): 10.94 cP
- Sterile-filterable ([1]; pH 6.88): Yes
- Viscosity (cP) ([1]; pH 7.03): 11.25 cP
- Sterile-filterable ([1]; pH 7.03): Yes
- Viscosity (cP) ([1]; pH 7.22): 15.00 cP
- Sterile-filterable ([1]; pH 7.22): Yes/No*
- Viscosity (cP) ([1]; pH 7.39): 16.88 cP
- Sterile-filterable ([1]; pH 7.39): No
- Viscosity (cP) ([1]; pH 7.7): 16.88 cP
- Sterile-filterable ([1]; pH 7.7): No
- Viscosity (cP) ([1]; pH 7.96): 25.00 cP
- Sterile-filterable ([1]; pH 7.96): No
- Viscosity (cP) ([1]; pH 8.4): 21.88 cP and 24.38 cP
- Sterile-filterable ([1]; pH 8.4): No
- Viscosity (cP) ([1]; pH 8.8): 87.50 cP
- Sterile-filterable ([1]; pH 8.8): No

Sequence: SVYDFFVWL [TRP-2180-188]
- GM-CSF [2, 3]: 46 pg/mL
- IFN-γ [2, 3]: 41 pg/mL
- IL-6 [2, 3]: 109 pg/mL
- TNF-α [2, 3]: 14 pg/mL
- GM-CSF [2, 4]: 57 pg/mL
- IFN-γ [2, 4]: 199 pg/mL
- IL-2 [2, 4]: 43 pg/mL
- IL-6 [2, 4]: 115 pg/mL
- TNF-α ([2]; CD8+ lung cells stimulated with SVN19-28de): 9 pg/mL
- GM-CSF [2, 5]: 48 pg/mL
- IFN-γ [2, 5]: 301 pg/mL
- IL-2 [2, 5]: 33 pg/mL
- IL-6 [2, 5]: 185 pg/mL
- IL-10 [2, 5]: 56 pg/mL
- TNF-α [2, 5]: 24 pg/mL
